Laboratory results: publication PMC9942953, “Merlin tumor suppressor function is regulated by PIP2-mediated dimerization” (PLOS ONE, 2023)

Legend:
[1] = biological target: T1, Merlin L64P, patient derived mutant, P35240; assay: co-IP; HEK 293T co-transfected with a GFP fusion and a NanoLuc fusion; lysis in TBS, 2 mM MgCl2, 0.5% NP-40; GFP-Trap_MA; ratio of bound to unbound luciferase activity normalised to GFP fluorescence; conditions: remark: other sources report otherwise
T1 chain: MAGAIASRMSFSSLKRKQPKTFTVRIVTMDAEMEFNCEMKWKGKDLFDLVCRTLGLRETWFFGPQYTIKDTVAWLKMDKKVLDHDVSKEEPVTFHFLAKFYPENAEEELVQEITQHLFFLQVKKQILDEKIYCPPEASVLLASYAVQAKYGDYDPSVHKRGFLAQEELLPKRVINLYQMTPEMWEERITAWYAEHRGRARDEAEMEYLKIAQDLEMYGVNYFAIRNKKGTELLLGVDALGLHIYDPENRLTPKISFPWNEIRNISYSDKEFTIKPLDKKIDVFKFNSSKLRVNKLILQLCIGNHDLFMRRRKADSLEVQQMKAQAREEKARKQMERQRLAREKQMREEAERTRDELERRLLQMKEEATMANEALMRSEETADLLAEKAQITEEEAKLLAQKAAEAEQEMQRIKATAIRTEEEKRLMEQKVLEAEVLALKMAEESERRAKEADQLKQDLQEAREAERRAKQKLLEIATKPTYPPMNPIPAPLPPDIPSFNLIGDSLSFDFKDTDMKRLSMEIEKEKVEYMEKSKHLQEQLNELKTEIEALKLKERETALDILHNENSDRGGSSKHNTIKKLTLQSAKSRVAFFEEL

[2] = biological target: the molecule itself; assay: as above

Row | Binder | fold dimerization relative to wild type [1] | percent dimerization relative to wild type [2]
1 | Merlin L64P, patient derived mutant, P35240 1-595 (natural protein) MAGAIASRMSFSSLKRKQPKTFTVRIVTMDAEMEFNCEMKWKGKDLFDLVCRTLGLRETWFFGPQYTIKDTVAWLKMDKKVLDHDVSKEEPVTFHFLAKFYPENAEEELVQEITQHLFFLQVKKQILDEKIYCPPEASVLLASYAVQAKYGDYDPSVHKRGFLAQEELLPKRVINLYQMTPEMWEERITAWYAEHRGRARDEAEMEYLKIAQDLEMYGVNYFAIRNKKGTELLLGVDALGLHIYDPENRLTPKISFPWNEIRNISYSDKEFTIKPLDKKIDVFKFNSSKLRVNKLILQLCIGNHDLFMRRRKADSLEVQQMKAQAREEKARKQMERQRLAREKQMREEAERTRDELERRLLQMKEEATMANEALMRSEETADLLAEKAQITEEEAKLLAQKAAEAEQEMQRIKATAIRTEEEKRLMEQKVLEAEVLALKMAEESERRAKEADQLKQDLQEAREAERRAKQKLLEIATKPTYPPMNPIPAPLPPDIPSFNLIGDSLSFDFKDTDMKRLSMEIEKEKVEYMEKSKHLQEQLNELKTEIEALKLKERETALDILHNENSDRGGSSKHNTIKKLTLQSAKSRVAFFEEL | 1.28 fold | –
2 | Merlin ΔN18, deletion of the N-terminal 18 amino acids (domain or fragment, UniProt P35240 19-595, looked up, Merlin isoform 1 without its unique N-terminal 18 amino acids; source: HEK 293T, co-transfected, in lysate; not shown: NanoLuc (probe copy) or EGFP (bait copy), C-terminal, kept) PKTFTVRIVTMDAEMEFNCEMKWKGKDLFDLVCRTLGLRETWFFGLQYTIKDTVAWLKMDKKVLDHDVSKEEPVTFHFLAKFYPENAEEELVQEITQHLFFLQVKKQILDEKIYCPPEASVLLASYAVQAKYGDYDPSVHKRGFLAQEELLPKRVINLYQMTPEMWEERITAWYAEHRGRARDEAEMEYLKIAQDLEMYGVNYFAIRNKKGTELLLGVDALGLHIYDPENRLTPKISFPWNEIRNISYSDKEFTIKPLDKKIDVFKFNSSKLRVNKLILQLCIGNHDLFMRRRKADSLEVQQMKAQAREEKARKQMERQRLAREKQMREEAERTRDELERRLLQMKEEATMANEALMRSEETADLLAEKAQITEEEAKLLAQKAAEAEQEMQRIKATAIRTEEEKRLMEQKVLEAEVLALKMAEESERRAKEADQLKQDLQEAREAERRAKQKLLEIATKPTYPPMNPIPAPLPPDIPSFNLIGDSLSFDFKDTDMKRLSMEIEKEKVEYMEKSKHLQEQLNELKTEIEALKLKERETALDILHNENSDRGGSSKHNTIKKLTLQSAKSRVAFFEEL | – | 33%
